First the molecules themselves.
B1: Nibrin (Homo sapiens), O60934 (parent)
chain: MWKLLPAAGPAGGEPYRLLTGVEYVVGRKNCAILIENDQSISRNHAVLTANFSVTNLSQTDEIPVLTLKDNSKYGTFVNEEKMQNGFSRTLKSGDGITFGVFGSKFRIEYEPLVACSSCLDVSGKTALNQAILQLGGFTVNNWTEECTHLVMVSVKVTIKTICALICGRPIVKPEYFTEFLKAVESKKQPPQIESFYPPLDEPSIGSKNVDLSGRQERKQIFKGKTFIFLNAKQHKKLSSAVVFGGGEARLITEENEEEHNFFLAPGTCVVDTGITNSQTLIPDCQKKWIQSIMDMLQRQGLRPIPEAEIGLAVIFMTTKNYCDPQGHPSTGLKTTTPGPSLSQGVSVDEKLMPSAPVNTTTYVADTESEQADTWDLSERPKEIKVSKMEQKFRMLSQDAPTVKESCKTSSNNNSMVSNTLAKMRIPNYQLSPTKLPSINKSKDRASQQQQTNSIRNYFQPSTKKRERDEENQEMSSCKSARIETSCSLLEQTQPATPSLWKNKEQHLSENEPVDTNSDNNLFTDTDLKSIVKNSASKSHAAEKLRSNKKREMDDVAIEDEVLEQLFKDTKPELEIDVKVQKQEEDVNVRKRPRMDIETNDTFSDEAVPESSKISQENEIGKKRELKEDSLWSAKEISNNDKLQDDSEMLPKKLLLTEFRSLVIKNSTSRNPSGINDDYGQLKNFKKFKKVTYPGAGKLPHIIGGSDLIAHHARKNTELEEWLRQEMEVQNQHAKEESLADDLFRYNPYLKRRR

Variants of B1 are the subject of the first assay. Particulars: with mdc1_human MDC1, Q14676.
Sequence of mdc1_human MDC1, Q14676 (Q14676 whole entry): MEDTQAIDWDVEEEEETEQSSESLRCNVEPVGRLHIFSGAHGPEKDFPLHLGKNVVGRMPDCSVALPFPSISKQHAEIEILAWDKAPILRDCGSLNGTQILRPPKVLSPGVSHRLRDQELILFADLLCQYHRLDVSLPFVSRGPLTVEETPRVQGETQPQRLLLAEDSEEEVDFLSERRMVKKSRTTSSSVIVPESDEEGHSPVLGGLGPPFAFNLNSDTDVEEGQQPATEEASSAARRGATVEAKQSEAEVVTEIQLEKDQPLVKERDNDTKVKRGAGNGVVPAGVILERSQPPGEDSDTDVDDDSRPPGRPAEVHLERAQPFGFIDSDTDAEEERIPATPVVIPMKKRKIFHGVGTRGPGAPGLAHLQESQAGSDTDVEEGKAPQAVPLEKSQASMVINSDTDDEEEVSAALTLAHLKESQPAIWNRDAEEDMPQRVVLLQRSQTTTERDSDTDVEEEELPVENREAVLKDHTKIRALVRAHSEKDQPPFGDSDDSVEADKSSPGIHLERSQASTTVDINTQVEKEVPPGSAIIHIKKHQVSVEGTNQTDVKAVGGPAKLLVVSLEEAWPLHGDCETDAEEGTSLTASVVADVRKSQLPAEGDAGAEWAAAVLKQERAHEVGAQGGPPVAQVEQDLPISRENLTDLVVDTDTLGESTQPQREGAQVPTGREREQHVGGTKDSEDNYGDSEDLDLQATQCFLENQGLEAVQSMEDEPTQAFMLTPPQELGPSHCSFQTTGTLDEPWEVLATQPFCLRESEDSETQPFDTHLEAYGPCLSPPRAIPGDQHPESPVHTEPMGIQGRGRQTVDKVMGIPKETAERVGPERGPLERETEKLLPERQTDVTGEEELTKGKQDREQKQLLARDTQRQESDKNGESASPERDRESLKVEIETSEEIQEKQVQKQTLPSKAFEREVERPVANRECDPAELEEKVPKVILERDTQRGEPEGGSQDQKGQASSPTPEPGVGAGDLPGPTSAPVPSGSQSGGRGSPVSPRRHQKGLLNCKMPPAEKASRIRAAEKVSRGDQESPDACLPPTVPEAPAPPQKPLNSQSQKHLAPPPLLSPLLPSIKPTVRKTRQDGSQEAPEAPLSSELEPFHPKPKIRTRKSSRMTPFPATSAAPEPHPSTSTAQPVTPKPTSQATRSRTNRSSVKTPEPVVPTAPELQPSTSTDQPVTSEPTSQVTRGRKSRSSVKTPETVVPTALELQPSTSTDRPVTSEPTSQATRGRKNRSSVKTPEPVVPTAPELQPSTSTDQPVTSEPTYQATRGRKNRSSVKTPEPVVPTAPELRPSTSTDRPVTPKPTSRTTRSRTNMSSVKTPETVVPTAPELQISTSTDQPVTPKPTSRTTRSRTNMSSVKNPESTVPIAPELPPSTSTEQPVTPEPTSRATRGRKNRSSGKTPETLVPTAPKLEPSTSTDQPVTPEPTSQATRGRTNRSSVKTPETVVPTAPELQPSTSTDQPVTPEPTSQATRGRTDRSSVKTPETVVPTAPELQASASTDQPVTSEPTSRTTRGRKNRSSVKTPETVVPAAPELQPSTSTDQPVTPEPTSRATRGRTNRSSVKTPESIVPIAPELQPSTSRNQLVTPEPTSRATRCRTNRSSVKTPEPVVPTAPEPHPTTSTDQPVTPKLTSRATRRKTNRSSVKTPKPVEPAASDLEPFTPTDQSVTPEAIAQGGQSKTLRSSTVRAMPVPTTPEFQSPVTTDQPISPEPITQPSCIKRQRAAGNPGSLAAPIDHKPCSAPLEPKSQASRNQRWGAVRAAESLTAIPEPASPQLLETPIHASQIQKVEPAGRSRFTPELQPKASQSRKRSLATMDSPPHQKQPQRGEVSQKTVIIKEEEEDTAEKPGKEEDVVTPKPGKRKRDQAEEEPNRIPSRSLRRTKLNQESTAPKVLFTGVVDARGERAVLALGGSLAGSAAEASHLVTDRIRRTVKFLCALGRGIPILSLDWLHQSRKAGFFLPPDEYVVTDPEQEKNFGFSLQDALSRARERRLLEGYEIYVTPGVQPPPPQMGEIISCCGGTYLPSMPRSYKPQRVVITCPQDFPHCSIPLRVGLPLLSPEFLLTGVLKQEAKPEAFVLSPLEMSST
K160M: the “effect of a mutation on the interaction” value is given as “disrupting interaction”.

The next assay covers variants of B1. To be noted: with mdc1_human MDC1, Q14676. This is another data set of the same source.
On to R28A, for which the “effect of a mutation on the interaction” value is “disrupting interaction”.

Variants of B1 are the subject of a further assay. Particulars: with mdc1_human MDC1, Q14676. The source holds these as a separate data set.
As for H45A, the “effect of a mutation on the interaction” value is given as “disrupting interaction”.

These data come from IntAct's records for PubMed 18583988.
